Results on 2 molecules are retold here after PMC12363979 (International Journal of Nanomedicine, 2025).

One may read the kon as a measure of how fast the partners come together. The low end stands for slow association, the high end for fast association.

The target of test [1] is T1, RSV F construct DS2 (stabilized prefusion F trimer) (human RSV A, Long strain (paper); …, stabilised).
T1 chain: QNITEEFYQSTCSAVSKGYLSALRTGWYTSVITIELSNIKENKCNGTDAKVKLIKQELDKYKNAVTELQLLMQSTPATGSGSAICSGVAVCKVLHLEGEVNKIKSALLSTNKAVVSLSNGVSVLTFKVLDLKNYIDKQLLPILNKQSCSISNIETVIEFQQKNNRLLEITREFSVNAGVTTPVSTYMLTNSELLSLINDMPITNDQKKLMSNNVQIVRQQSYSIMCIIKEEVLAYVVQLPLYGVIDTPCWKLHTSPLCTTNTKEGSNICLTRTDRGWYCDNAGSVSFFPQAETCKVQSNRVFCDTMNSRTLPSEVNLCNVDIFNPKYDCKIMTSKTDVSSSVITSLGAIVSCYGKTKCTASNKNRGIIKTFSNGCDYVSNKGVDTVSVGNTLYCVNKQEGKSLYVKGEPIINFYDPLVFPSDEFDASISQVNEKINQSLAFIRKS
Briefly: SPR. (In general: SPR reads the build-up and loss of mass on a sensor chip optically.)

The target of test [2] is T2, DS2-I53-50 nanoparticle (DS2-I53-50A co-assembled with I53-50B) (human RSV A, Long strain (paper); …, stabilised).
T2 chain: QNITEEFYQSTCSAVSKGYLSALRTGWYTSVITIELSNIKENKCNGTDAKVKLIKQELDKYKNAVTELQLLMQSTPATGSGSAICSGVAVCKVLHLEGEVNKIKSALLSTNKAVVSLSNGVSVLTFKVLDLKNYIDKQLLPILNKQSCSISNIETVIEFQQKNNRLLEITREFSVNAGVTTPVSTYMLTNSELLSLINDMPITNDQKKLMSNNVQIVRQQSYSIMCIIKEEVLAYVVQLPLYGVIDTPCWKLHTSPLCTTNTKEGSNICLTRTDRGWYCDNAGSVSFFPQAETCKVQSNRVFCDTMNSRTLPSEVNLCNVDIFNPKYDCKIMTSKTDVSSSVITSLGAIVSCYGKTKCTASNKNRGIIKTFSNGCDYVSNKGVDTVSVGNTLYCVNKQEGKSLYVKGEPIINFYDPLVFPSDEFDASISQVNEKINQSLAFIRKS
Briefly: SPR.

B1: AM14 monoclonal antibody (IgG) (antibody, V domains shown)
VH: EVQLVESGGGVVQPGRSLRLSCAASGFSFSHYAMHWVRQAPGKGLEWVAVISYDGENTYYADSVKGRFSISRDNSKNTVSLQMNSLRPEDTALYYCARDRIVDDYYYYGMDVWGQGATVTVSS
VL: DIQMTQSPSSLSASVGDRVTITCQASQDIKKYLNWYHQKPGKVPELLMHDASNLETGVPSRFSGRGSGTDFTLTISSLQPEDIGTYYCQQYDNLPPLTFGGGTKVEIK
As to B1, the kon in test [1] was 438000 M⁻¹ s⁻¹; in test [2], 4.33e+06 M⁻¹ s⁻¹.

B2: D25 monoclonal antibody (IgG) (antibody, V domains shown)
VH: QVQLVQSGAEVKKPGSSVMVSCQASGGPLRNYIINWLRQAPGQGPEWMGGIIPVLGTVHYAPKFQGRVTITADESTDTAYIHLISLRSEDTAMYYCATETALVVSTTYLPHYFDNWGQGTLVTVSS
VL: DIQMTQSPSSLSAAVGDRVTITCQASQDIVNYLNWYQQKPGKAPKLLIYVASNLETGVPSRFSGSGSGTDFSLTISSLQPEDVATYYCQQYDNLPLTFGGGTKVEIK
Consider B2, for which the values for the kon in test [1] and in test [2] were 114000 M⁻¹ s⁻¹ and 1.39e+06 M⁻¹ s⁻¹, respectively.
